In patent US20120135912A1 (PERSEID THERAPEUTICS, published 2012):
Where a chain is given by its changes, count along the chain named. In names and notes the source's numbering stands. Several values for one entry are separate records, joined by “and”; a condition that tells them apart may be missing. Equal entries are not always repeated. Blank lines part the entries; values can stand above or below the binder they belong to.

Tests used:
[1] = biological target: T1, human VLA4-Fc (alpha4-Fc/beta1-Fc heterodimer) (human); assay: SPR (BIACORE), retest with new polypeptide preparations and new VLA4-Fc
T1 construct: Soluble heterodimer from CHO cells, Protein A purified; also called VLA-Fc
T1 sequence (chain, as listed by the source limits assumed, form in doubt, chain 1 of 2): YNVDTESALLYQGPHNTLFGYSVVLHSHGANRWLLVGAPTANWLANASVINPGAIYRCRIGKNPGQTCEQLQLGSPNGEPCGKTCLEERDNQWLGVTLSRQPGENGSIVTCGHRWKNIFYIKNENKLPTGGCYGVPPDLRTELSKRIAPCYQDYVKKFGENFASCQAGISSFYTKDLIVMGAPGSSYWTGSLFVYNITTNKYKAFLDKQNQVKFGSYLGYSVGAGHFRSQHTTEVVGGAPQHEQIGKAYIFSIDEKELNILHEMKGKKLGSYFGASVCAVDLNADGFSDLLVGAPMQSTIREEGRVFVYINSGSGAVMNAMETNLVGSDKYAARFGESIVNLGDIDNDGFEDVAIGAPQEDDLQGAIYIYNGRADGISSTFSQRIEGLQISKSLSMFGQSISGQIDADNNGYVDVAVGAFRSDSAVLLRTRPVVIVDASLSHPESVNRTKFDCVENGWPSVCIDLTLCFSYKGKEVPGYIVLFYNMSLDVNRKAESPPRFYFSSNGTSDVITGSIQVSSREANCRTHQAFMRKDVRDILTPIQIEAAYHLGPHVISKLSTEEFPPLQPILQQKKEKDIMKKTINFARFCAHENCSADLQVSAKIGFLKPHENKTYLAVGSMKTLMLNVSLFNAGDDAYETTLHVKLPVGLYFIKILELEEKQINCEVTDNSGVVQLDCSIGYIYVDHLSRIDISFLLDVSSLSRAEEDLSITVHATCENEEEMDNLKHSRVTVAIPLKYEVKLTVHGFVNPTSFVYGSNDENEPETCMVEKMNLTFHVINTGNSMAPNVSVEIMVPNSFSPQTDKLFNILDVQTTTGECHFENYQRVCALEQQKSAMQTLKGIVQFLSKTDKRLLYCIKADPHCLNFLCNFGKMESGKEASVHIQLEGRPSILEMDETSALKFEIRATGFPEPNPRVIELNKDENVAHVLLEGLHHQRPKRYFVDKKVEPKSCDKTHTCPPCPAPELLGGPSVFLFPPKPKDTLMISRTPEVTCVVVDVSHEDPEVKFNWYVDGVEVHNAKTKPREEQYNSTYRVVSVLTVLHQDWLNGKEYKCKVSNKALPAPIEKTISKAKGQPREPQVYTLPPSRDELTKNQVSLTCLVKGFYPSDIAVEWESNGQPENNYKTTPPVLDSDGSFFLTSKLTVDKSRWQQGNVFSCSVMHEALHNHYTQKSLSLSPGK
T1 sequence (chain, as listed by the source limits assumed, form in doubt, chain 2 of 2): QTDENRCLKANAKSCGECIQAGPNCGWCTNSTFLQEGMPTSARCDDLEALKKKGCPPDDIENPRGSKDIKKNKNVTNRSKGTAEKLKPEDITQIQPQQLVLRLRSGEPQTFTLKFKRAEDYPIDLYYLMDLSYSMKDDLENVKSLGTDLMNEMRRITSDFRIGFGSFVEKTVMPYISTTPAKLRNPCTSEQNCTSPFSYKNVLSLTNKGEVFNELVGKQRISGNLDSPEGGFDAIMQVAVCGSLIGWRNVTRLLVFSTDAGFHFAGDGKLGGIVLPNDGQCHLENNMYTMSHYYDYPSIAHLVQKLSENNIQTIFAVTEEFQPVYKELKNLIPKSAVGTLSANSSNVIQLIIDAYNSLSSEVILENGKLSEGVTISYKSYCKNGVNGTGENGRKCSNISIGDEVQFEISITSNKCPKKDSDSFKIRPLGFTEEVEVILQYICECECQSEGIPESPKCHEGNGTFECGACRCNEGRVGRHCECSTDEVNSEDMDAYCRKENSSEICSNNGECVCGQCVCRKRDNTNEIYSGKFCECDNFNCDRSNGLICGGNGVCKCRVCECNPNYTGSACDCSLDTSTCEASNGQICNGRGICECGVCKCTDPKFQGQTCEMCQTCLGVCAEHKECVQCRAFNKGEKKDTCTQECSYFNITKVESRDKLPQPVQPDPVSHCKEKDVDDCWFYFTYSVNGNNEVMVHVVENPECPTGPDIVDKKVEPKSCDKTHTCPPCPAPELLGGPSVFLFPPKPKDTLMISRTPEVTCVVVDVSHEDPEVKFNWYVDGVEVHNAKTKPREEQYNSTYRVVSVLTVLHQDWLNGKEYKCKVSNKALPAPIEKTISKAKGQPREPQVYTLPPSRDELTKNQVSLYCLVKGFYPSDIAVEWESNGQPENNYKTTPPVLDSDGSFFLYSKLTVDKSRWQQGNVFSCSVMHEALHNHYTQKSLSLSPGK
Protocol: The kinetic 2D-VCAM-1 assay measures binding kinetics of a dimeric ligand (e.g., VLA-Fc fusion protein or LPAM-1-Fc fusion protein) coated to sensor chips and monomeric analyte (e.g., 2D-VCAM-1 variant polypeptides) in the mobile phase. Goat anti-human IgG antibody (Jackson ImmunoResearch, Catalog No. 105-005-098) was immobilized on CM-5 sensor chips (GE Healthcare, Catalog No. BR-1000-14) according to the manufacturer's protocol. Antibody was diluted to 30 μg/ml in immobilization buffer (10 mM sodium acetate, pH 5.0 (GE Healthcare, Catalog No. BR-1003-51)). […] Un-reacted sites were quenched with 35 μl of 1 M ethanolamine-HCl pH 8.5 (GE Healthcare, Catalog No. BR-1000-50). This procedure typically yielded 15,000 response units (RU) of coupled antibody. VLA4-Fc or LPAM-1-Fc, prepared as described in Examples 3 and 4, respectively, were bound to antibody-coated sensor chips by injection of 20 μl of ligand solution (20 μg/ml protein in HBS-P-Mn buffer at a flow rate of 10 μl/min). Ligand capture levels were typically 200-300 RU. 2D-VCAM-1 variant polypeptides were diluted in HBS-P-Mn and flowed over ligand-coated sensor chips for 2 min at 30 μl/min, followed by 5 min incubation with in HBS-P-Mn containing no protein at the same flow rate. For 2D-VCAM-1 variant polypeptides having very slow dissociation rates from VLA4-Fc or LPAM-1-Fc, kinetic assays were also conducted using longer dissociation times (e.g., 20 min). Rmax signal levels for 2D-VCAM-1 variant polypeptides ranged from approximately 5-25 RU. Regeneration between cycles was performed by 200 sec incubation with 10 mM glycine buffer (pH 1.7) at 50 μl/min. New chips were subjected to 4-5 cycles of capture/binding/regeneration prior to use in actual experiments. Data from a reference cell containing goat anti-human IgG capture antibody alone was subtracted from data obtained from flow cells containing captured VLA4-Fc or LPAM-1-Fc. Typically, 8 dilutions of 2D-VCAM-1 variant polypeptides ranging from 150 nM to 0.069 nM were analyzed against a blank reference (HBS-P-Mn buffer alone).

[2] = biological target: T2, human VLA4 (integrin alpha4beta1) on the surface of U937 cells (human, UniProt P13612 34-1032; P05556 21-798); assay: cell-based or functional assay
T2 sequence (P13612 34-1032, chain 1 of 2): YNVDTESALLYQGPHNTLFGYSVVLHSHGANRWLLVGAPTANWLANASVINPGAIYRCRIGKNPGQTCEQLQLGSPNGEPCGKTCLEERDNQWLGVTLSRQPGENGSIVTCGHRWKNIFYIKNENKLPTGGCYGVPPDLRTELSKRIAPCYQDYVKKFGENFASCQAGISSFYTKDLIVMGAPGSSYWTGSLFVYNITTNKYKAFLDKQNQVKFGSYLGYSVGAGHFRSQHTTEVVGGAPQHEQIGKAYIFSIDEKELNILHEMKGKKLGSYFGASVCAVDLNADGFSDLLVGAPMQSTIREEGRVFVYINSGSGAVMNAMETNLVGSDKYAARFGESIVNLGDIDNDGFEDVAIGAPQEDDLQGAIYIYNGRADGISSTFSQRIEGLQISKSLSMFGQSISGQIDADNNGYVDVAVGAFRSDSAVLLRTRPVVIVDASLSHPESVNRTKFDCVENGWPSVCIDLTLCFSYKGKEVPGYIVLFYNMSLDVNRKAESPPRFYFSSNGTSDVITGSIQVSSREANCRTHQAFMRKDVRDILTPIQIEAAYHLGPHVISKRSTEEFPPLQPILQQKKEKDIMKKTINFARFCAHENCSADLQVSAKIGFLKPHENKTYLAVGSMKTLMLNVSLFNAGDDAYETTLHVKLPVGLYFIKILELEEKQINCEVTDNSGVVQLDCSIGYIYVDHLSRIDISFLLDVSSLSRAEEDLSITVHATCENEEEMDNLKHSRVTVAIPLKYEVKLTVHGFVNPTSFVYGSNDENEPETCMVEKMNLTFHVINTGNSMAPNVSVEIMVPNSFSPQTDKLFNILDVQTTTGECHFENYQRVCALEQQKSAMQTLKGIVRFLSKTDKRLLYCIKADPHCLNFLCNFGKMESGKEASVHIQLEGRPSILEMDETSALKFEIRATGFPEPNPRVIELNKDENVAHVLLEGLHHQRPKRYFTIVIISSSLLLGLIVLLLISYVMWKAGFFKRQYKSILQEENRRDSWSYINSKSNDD
T2 sequence (P05556 21-798, chain 2 of 2): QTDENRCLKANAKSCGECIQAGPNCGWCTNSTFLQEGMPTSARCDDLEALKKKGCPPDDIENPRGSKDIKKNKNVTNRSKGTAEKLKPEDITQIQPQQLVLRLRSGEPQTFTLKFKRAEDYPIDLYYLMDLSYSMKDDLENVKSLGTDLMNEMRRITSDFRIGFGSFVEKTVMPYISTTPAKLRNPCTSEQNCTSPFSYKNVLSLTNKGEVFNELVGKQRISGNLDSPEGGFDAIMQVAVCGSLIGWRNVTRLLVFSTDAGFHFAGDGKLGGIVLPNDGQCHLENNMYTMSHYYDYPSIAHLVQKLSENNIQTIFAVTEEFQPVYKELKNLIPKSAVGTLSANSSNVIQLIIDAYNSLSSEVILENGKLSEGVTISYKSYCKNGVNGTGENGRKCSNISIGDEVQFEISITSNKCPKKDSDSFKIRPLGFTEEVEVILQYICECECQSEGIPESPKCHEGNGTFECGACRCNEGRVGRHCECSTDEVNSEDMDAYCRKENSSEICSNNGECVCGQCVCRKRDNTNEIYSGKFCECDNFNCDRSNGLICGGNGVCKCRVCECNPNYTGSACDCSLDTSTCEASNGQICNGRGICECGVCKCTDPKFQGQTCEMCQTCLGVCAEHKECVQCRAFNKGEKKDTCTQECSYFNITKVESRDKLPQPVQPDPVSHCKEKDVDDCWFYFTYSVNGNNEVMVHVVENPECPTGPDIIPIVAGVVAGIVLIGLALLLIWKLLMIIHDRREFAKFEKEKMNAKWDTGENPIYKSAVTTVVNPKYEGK

[3] = biological target: T3, human LPAM-1-Fc (alpha4-Fc/beta7-Fc heterodimer) (human); assay: SPR (BIACORE), retest with new polypeptide preparations and new LPAM-1-Fc
T3 construct: Soluble heterodimer from CHO cells, Protein A purified
T3 sequence (chain, as listed by the source limits assumed, chain 1 of 2): as the sequence (chain, as listed by the source limits assumed, form in doubt, chain 1 of 2) above
T3 sequence (chain, as listed by the source limits assumed, chain 2 of 2): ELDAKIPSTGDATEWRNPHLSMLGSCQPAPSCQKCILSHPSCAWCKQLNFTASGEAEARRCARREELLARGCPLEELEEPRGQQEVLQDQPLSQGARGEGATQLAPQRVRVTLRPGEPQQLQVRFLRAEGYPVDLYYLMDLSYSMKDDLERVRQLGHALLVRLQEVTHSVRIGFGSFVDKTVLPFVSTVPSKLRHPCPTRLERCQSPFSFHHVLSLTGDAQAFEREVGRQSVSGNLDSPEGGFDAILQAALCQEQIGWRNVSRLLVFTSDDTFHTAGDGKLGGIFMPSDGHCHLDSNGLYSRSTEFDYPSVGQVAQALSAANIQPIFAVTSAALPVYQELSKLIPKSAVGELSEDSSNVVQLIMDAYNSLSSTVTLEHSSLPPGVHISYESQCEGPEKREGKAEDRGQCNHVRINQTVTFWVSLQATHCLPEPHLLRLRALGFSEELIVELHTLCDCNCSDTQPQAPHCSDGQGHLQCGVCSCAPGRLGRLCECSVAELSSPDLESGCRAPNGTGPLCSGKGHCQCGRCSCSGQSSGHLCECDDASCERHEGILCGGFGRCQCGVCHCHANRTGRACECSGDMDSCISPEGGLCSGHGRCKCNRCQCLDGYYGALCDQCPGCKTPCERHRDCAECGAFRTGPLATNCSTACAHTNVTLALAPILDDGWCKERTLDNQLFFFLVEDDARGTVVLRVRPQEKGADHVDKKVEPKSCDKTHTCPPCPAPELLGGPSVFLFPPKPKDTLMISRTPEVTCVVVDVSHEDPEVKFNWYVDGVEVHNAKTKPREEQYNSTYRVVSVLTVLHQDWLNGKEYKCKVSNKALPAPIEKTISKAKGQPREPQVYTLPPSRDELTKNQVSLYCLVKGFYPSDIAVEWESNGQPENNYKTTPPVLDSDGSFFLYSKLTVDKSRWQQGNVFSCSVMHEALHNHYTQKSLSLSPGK
Protocol: In this screening method, Biacore sensor chips were derivatized with anti-human IgG. After capture of VLA4-Fc or LPAM-1-Fc ligands on these surfaces, 2D-VCAM-1 variant polypeptides in buffer were allowed to flow over the ligand-coated sensor chips. The ability of a 2D-VCAM variant polypeptide to bind to a specific binding partner (i.e., VLA4-Fc or LPAM-1-Fc) was evaluated. Control protein (i.e., human 2D-VCAM-1 polypeptide (SEQ ID NO:2) or Q38L-2D-VCAM-1 polypeptide (SEQ ID NO:10)), was also allowed to flow over the ligand-coated sensor chips and the abilities of these molecules to bind to VLA4-Fc or LPAM-1-Fc were similarly evaluated for comparison. Using the Biacore system, the association (kₒₙ) and dissociation (koff) rate constant of the protein of interest binding to VLA4-Fc or LPAM-1-Fc ligands can be evaluated and used to calculate the equilibrium dissociation constant, KD. Variant 2D-VCAM-1 polypeptides having increased binding affinities for VLA4-Fc and/or LPAM-1-Fc, compared to human 2D-VCAM-1 and/or Q38L-2D-VCAM-1, were identified.
All BIACORE analyses were performed on a BIACORE 2000 system or BIACORE 3000 system (GE Healthcare) at room temperature (RT, 25° C.), HBS-P buffer (10 mM Hepes (pH 7.4), 150 mM NaCl, 0.005% surfactant P20) supplemented with 1 mM MnCl₂ (HBS-P-Mn) was used as the flow buffer for all experiments except where indicated.
Table 6B presents binding affinities of representative 2D-VCAM-1 variant polypeptides of the invention to LPAM-1-Fc when retested with new polypeptide preparations and new LPAM-1-Fc ligand and measured by the standard BICORE assay described above. The controls human 2D-VCAM-1 or the Q38L 2D-VCAM-1 polypeptide was not reassayed.

[4] = biological target: T2, human VLA4 (integrin alpha4beta1) on …; assay: static cell adhesion assay: U937 cells on immobilized 7D-VCAM-1 in the presence of the soluble polypeptide; blocked ligand: immobilized 7D-VCAM-1 (Example 13)
Protocol: Prior to assaying, the U937 cells were re-suspended in labeling buffer (RPMI 1640 culture media without phenol red, 10% FBS; Invitrogen), then labeled with 0.5 μg/ml Calcein-AM at 37° C. for 30 minutes on a rotator. Subsequently, the cells were washed three times with labeling buffer then resuspended at 5×10^6 cells/ml in assay buffer (HEPES CaMgMn buffer: 50 mM HEPES, 150 mM NaCl, 1 mM CaCl₂, 1 mM MgCl₂, 1 mM MnCl2 pH 7.4).
The test compounds (i.e., the 2D-VCAM-1 variant polypeptides) were diluted in dilution buffer and added to VCAM-1-coated plates. […] Plates were spun down at 280×g for 5 minutes with assay buffer decanted by inversion before measuring fluorescence intensity (excitation=485 nm, emission=530 nm) with LJL Analyst HT 96.384 (Molecular Devices, Sunnyvale, Calif.).
FIG. 5 is a graph showing the cell adhesion index for anti-VLA4-antibody (used as a positive control for maximal inhibition of cell adherence), dilution buffer alone (“no treatment”, a control to show maximal cell adherence to the immobilized VCAM-1), 2D-VCAM-1 valiant Clone 46 (SEQ ID NO:12), Q38L-2D-VCAM-1 polypeptide (SEQ ID NO:10), and human 2D-VCAM-1 (SEQ ID NO:2). The cell adhesion index was calculated as (fluorescence intensity, VCAM-coated well)/(fluorescence intensity, non-CAM-1-coated well). […]

B1: 2D-VCAM-1 variant Clone 46 (ligand)
chain: FKIETTPESRYLAQIGDSVSLTCSTTGCESPFFSWRPQLDAPLNGKVTNEGTTSTLTMNPVSFGNEHSYLCTATCESRKLEKGIQVEIYSFPKDPEIHLSGPLEAGKPITVKCSVADVYPFDRLEIDLLKGDHLMKSQEFLEDADRKSLETKSLEVTFTPVIEDIGKVLVCRAKLHIDEMDSVPTVRQAVKELQVYISP
notes: also called Clone 046; not shown: His tag
Kd [1]: 1.95 nM
IC50 of inhibition of U937 cell adhesion to immobilized 7D-VCAM-1 [2]: 6.4 nM and 0.16 mg/ml
Kd [3]: 77 nM

B2: Q38L-2D-VCAM-1 (ligand)
chain: B1 chain with P37T, Q38L, L39I, A41S
notes: also called Q38L 2D-VCAM-1 polypeptide; not shown: His tag
binding result [4]: binds

Now from value to binder:

IC50 of inhibition of U937 cell adhesion to immobilized 7D-VCAM-1 [2]: 0.8 nM and 0.02 mg/ml
Kd [3]: 1.2 nM
B3: 2D-VCAM-1 variant Clone 146 (ligand, not shown: small tags and cut ends)
chain: B1 chain with F32L, S34F, Q38L, A41S, T74R, K79S

Kd [1]: 0.095 nM
Kd [3]: 2.6 nM
B4: 2D-VCAM-1 variant Clone 59 (ligand)
chain: B1 chain with Q38L, A41S, L141F, D145A, R146W
notes: also called Clone 059; not shown: His tag

Kd [1]: 0.68 nM
Kd [3]: 40 nM
B5: 2D-VCAM-1 variant Clone 47 (ligand)
chain: B1 chain with Q38L, A41S
notes: also called Clone 047; not shown: His tag
